Results on five molecules are retold here after patent US20220119490A1 (Genentech, published 2022).

Numbering of substitutions follows the chain as printed.

Assay [1] concerns the target T1, PTPRD extracellular domain (wild type) (human, UniProt P23468 21-1265).
T1 construct: extracellular domain; Ectodomain-Fc in SPR; also called wt PTPRD; PTPRD ectodomain fused to an Fc tag
T1 sequence (looked up): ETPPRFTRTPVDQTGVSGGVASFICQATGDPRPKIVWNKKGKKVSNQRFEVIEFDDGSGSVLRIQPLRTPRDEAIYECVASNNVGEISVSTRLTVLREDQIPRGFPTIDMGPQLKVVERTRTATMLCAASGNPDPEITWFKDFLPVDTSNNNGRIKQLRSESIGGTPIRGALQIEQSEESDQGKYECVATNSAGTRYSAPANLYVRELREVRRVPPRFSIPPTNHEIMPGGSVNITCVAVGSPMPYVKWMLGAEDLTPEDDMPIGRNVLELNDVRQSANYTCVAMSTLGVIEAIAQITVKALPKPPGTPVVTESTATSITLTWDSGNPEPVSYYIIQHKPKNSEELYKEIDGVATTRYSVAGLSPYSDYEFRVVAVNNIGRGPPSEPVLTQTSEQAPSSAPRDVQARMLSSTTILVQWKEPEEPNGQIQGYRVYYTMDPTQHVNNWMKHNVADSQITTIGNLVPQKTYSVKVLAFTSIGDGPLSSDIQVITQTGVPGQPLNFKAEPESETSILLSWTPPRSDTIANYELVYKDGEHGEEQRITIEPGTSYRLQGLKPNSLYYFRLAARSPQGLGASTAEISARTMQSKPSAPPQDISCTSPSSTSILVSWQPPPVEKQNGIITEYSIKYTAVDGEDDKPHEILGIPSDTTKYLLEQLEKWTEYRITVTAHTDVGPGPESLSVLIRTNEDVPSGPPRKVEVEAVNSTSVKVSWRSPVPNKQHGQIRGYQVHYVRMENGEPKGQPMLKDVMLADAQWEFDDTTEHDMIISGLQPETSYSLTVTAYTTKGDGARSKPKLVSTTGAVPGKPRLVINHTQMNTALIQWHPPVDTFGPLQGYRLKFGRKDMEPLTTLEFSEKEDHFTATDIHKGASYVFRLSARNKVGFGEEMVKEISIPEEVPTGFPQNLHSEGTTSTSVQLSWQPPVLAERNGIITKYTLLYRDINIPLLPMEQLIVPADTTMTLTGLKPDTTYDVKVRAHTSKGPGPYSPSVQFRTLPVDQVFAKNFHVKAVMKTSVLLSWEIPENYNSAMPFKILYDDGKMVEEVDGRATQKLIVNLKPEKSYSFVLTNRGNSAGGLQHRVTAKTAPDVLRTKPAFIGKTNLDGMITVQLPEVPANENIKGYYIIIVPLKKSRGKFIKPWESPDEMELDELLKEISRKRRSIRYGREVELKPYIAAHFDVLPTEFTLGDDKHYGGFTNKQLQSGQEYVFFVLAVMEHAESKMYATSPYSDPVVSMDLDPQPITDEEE
The assay can be described thus: SPR, ILRAPL1 (IL1RAPL1) ECD-Fc immobilized, PTPRD ectodomain-Fc as analyte. As for the experimental part:
(§1) The indicated protein (expressed as an ECD-Fc fusion protein) was immobilized on a sensor chip and PTPRD (expressed as an ectodomain fused to an Fc tag) was injected at the indicated concentrations.

Assay [2] deals with T1, PTPRD extracellular domain (wild type). The assay can be described thus: SPR, LRFN4 ECD-Fc immobilized, PTPRD ectodomain-Fc as analyte. As for the experimental part: as §1
Assay [3] addresses T2, PTPRD G203E K204E variant extracellular domain (human, UniProt P23468 21-1265).
T2 construct: extracellular domain; also called G203E/K204E double mutant; IG2 mutant
T2 sequence (looked up): T1 sequence (looked up) with G183E, K184E
The assay can be described thus: extracellular interaction screen: pentameric PTPRD variant ECD on ECD-Fc prey (FIG. 5L).

In assay [4] the target is T1, PTPRD extracellular domain (wild type). The assay can be described thus: SPR, LRFN1 ECD-Fc immobilized, PTPRD ectodomain-Fc as analyte. As for the experimental part: as §1
Assay [5] has the same target. The assay can be described thus: SPR, SLITRK4 ECD-Fc immobilized, PTPRD ectodomain-Fc as analyte. The method, then:
as §1

Assay [6] has the same target. The assay can be described thus: SPR, SLITRK1 ECD-Fc immobilized, PTPRD ectodomain-Fc as analyte. As for the experimental part: as §1

B1: IL1RAPL1 extracellular domain (receptor, human, UniProt Q9NZN1 19-357, looked up)
chain: LKVVTKRGSADGCTDWSIDIKKYQVLVGEPVRIKCALFYGYIRTNYSLAQSAGLSLMWYKSSGPGDFEEPIAFDGSRMSKEEDSIWFRPTLLQDSGLYACVIRNSTYCMKVSISLTVGENDTGLCYNSKMKYFEKAELSKSKEISCRDIEDFLLPTREPEILWYKECRTKTWRPSIVFKRDTLLIREVREDDIGNYTCELKYGGFVVRRTTELTVTAPLTDKPPKLLYPMESKLTIQETQLGDSANLTCRAFFGYSGDVSPLIYWMKGEKFIEDLDENRVWESDIRILKEHLGEQEVSISLIVDSVEEGDLGNYSCYVENGNGRRHASVLLHKRELMYT
notes: extracellular domain; ECD-Fc; also called ILRAPL1
B1: the binding result in assay [1] is reported as “binds”.

B2: LRFN4 extracellular domain (receptor, human, UniProt Q6PJG9 17-518, looked up)
chain: CPLPCVCQNLSESLSTLCAHRGLLFVPPNVDRRTVELRLADNFIQALGPPDFRNMTGLVDLTLSRNAITRIGARAFGDLESLRSLHLDGNRLVELGTGSLRGPVNLQHLILSGNQLGRIAPGAFDDFLESLEDLDLSYNNLRQVPWAGIGAMPALHTLNLDHNLIDALPPGAFAQLGQLSRLDLTSNRLATLAPDPLFSRGRDAEASPAPLVLSFSGNPLHCNCELLWLRRLARPDDLETCASPPGLAGRYFWAVPEGEFSCEPPLIARHTQRLWVLEGQRATLRCRALGDPAPTMHWVGPDDRLVGNSSRARAFPNGTLEIGVTGAGDAGGYTCIATNPAGEATARVELRVLALPHGGNSSAEGGRPGPSDIAASARTAAEGEGTLESEPAVQVTEVTATSGLVSWGPGRPADPVWMFQIQYNSSEDETLIYRIVPASSHHFLLKHLVPGADYDLCLLALSPAAGPSDLTATRLLGCAHFSTLPASPLCHALQAHVLGGTL
notes: extracellular domain; ECD-Fc; also called LFRN4
On to B2, for which the binding result in assay [2] is given as “binds”; in assay [3], “no binding”.

B3: LRFN1 extracellular domain (receptor, human, UniProt Q9P244 32-536, looked up)
chain: QPCPGRCICQNVAPTLTMLCAKTGLLFVPPAIDRRVVELRLTDNFIAAVRRRDFANMTSLVHLTLSRNTIGQVAAGAFADLRALRALHLDSNRLAEVRGDQLRGLGNLRHLILGNNQIRRVESAAFDAFLSTVEDLDLSYNNLEALPWEAVGQMVNLNTLTLDHNLIDHIAEGTFVQLHKLVRLDMTSNRLHKLPPDGLFLRSQGTGPKPPTPLTVSFGGNPLHCNCELLWLRRLTREDDLETCATPEHLTDRYFWSIPEEEFLCEPPLITRQAGGRALVVEGQAVSLRCRAVGDPEPVVHWVAPDGRLLGNSSRTRVRGDGTLDVTITTLRDSGTFTCIASNAAGEATAPVEVCVVPLPLMAPPPAAPPPLTEPGSSDIATPGRPGANDSAAERRLVAAELTSNSVLIRWPAQRPVPGIRMYQVQYNSSVDDSLVYRMIPSTSQTFLVNDLAAGRAYDLCVLAVYDDGATALPATRVVGCVQFTTAGDPAPCRPLRAHFLGGTM
notes: extracellular domain; ECD-Fc; also called LFRN1
With B3, the binding result in assay [4] is recorded as “binds”.

B4: SLITRK4 extracellular domain (receptor, human, UniProt Q8IW52 19-618, looked up)
chain: DSDISVEICNVCSCVSVENVLYVNCEKVSVYRPNQLKPPWSNFYHLNFQNNFLNILYPNTFLNFSHAVSLHLGNNKLQNIEGGAFLGLSALKQLHLNNNELKILRADTFLGIENLEYLQADYNLIKYIERGAFNKLHKLKVLILNDNLISFLPDNIFRFASLTHLDIRGNRIQKLPYIGVLEHIGRVVELQLEDNPWNCSCDLLPLKAWLENMPYNIYIGEAICETPSDLYGRLLKETNKQELCPMGTGSDFDVRILPPSQLENGYTTPNGHTTQTSLHRLVTKPPKTTNPSKISGIVAGKALSNRNLSQIVSYQTRVPPLTPCPAPCFCKTHPSDLGLSVNCQEKNIQSMSELIPKPLNAKKLHVNGNSIKDVDVSDFTDFEGLDLLHLGSNQITVIKGDVFHNLTNLRRLYLNGNQIERLYPEIFSGLHNLQYLYLEYNLIKEISAGTFDSMPNLQLLYLNNNLLKSLPVYIFSGAPLARLNLRNNKFMYLPVSGVLDQLQSLTQIDLEGNPWDCTCDLVALKLWVEKLSDGIVVKELKCETPVQFANIELKSLKNEILCPKLLNKPSAPFTSPAPAITFTTPLGPIRSPPGGPVPLS
notes: extracellular domain; ECD-Fc
Consider B4, for which the binding result in assay [5] was “binds”.

B5: SLITRK1 extracellular domain (receptor, human, UniProt Q96PX8 18-622, looked up)
chain: NVTGDVCKEKICSCNEIEGDLHVDCEKKGFTSLQRFTAPTSQFYHLFLHGNSLTRLFPNEFANFYNAVSLHMENNGLHEIVPGAFLGLQLVKRLHINNNKIKSFRKQTFLGLDDLEYLQADFNLLRDIDPGAFQDLNKLEVLILNDNLISTLPANVFQYVPITHLDLRGNRLKTLPYEEVLEQIPGIAEILLEDNPWDCTCDLLSLKEWLENIPKNALIGRVVCEAPTRLQGKDLNETTEQDLCPLKNRVDSSLPAPPAQEETFAPGPLPTPFKTNGQEDHATPGSAPNGGTKIPGNWQIKIRPTAAIATGSSRNKPLANSLPCPGGCSCDHIPGSGLKMNCNNRNVSSLADLKPKLSNVQELFLRDNKIHSIRKSHFVDYKNLILLDLGNNNIATVENNTFKNLLDLRWLYMDSNYLDTLSREKFAGLQNLEYLNVEYNAIQLILPGTFNAMPKLRILILNNNLLRSLPVDVFAGVSLSKLSLHNNYFMYLPVAGVLDQLTSIIQIDLHGNPWECSCTIVPFKQWAERLGSEVLMSDLKCETPVNFFRKDFMLLSNDEICPQLYARISPTLTSHSKNSTGLAETGTHSNSYLDTSRVSISVLVP
notes: extracellular domain; ECD-Fc
On to B5, for which the binding result in assay [6] was “binds”.
